Reference: a protein production outcome set (Wang et al. 2014)

Test: label from the status in PepcDB records

Sequence | protein production
MPNIGIIGAGIGGLQLGLQLRQHDIPVTIYTDKTANQIAGGRLLNSVAHHGPTLERERLLGVHFWPVEEYGYSCHHHYLGGDQPMSFRGDFTNWSSAIDYRLYLPKLSEAFQERGGNLEVRMLQADDIEPIAARHDLIVVAAGRGAFASMFPRRPDLSPYDTPQRALSVGIYRGIAESDPRGVTISTSPGHGDLLEIPMYTEDGFLTALLFENIPGGDLEILAKMSYDDDPQAFNRTVLDKLARHHPQTFERVDHTQFGLHRSIDLLQGALVPTVREDYAKLPGGKFALAIGDVHTVVDPLLGQGANSASHSAWVTGEAIVEDLGFDEMFCTRVARRRADVVLGAAQWTNLMLAPPAEHVLRLFEAMNANKAVADEFTHNFDHPDRQWQILATAERTNAFLARHGIESAAALAV | failed
MPNNHLTAAAPAQGREAIASPMERFSQAMVAWAEKWFPDAYVFVVVACAVVALGAILHGGDPLAVSKAFGEGFWSIIPLTMQMAMVAITGYVLALSPPVARLLRALARVPSTPRGAVVFIGTLSILLSLVNWGLSLIFSGLLVREMARRNDLRLDYRAAGAAGYLGLGCGFTLGMSSSAAQLQATPASIPASLMPITGVIGFSETILTWQNLVVVILVTVVSGLVCYFTAPSPERSLTAQDLGVDLTEPEAQAAQRQRPGDYLEFSPWLTVAVVGLASGWLYLTFRSGNPFITMSQLNTYNFVFLLLGLLLHWRPRSFLESFGRAMPSIGGVMLQFPFYGGIGYVLTKVANVQGHTLSDAIAHWFVSLAHDSSVFSILVSIYSAFLGFFIPSAGGKWVIEAPYIMDAANQIQAHLGWTVMVYNIAETLPNFINPFWMLPLLGILRLKSKDLVGYTAMQFLVHFPIVVAAGAILMHTFSYVPPVIPGQ | failed
MPNRKASRNAYYFFVQEKIPELRRRGLPVARVADAIPYCSSDWALLREEEKEKYAEMAREWRAAQGKDPGPSEKQKPVFT | not failed
MPNTIRLHRVLSAPPERVYRAFLDPLALAKWLPPEGFVCKVLEHDARVGGAYKMEFLAFASGQKHAFGGRYLELVPGERIRYTDRFDDAGLPGDMITTITLAPLSCGADLSIVQEGIPDAIPPENCYLGWQQSLKQLAALVEPDMPGLEHHHHHH | not failed
MPPCYQHEEEKFFLNAKGQKEALPSIWDSPTKQLSVVVPSYNEEKRLPVMMDEALNYLEKRQKHDCTFTYEVIVVDDGSEDQTSKVALKYCQKYGSDKVRVITLVRNRGKGGAVRMGVFSSRGEKILMADADGATKFPDVEKLEKGLSDLQPWPEQMAIACGSRAHLEKESIAQRSYFRTFLMYGFHFLVWFLCVKGIRDTQCGFKLLTREAAARTFSSLHIERWAFDVELLYIAQCLQIPIAEVAVNWTEIEGSKLVPFWSWLQMGKDLLFIRLRYLTGAWRLKQTRKAS | failed
MPPFLPLQVIKGVGPKRAVILAEAGIRSIADLYDCFPRRYLDRTTIKKIGALRDGETVTVVGSVTGTRFEGGGRGGSRFKAQITDGSGVLELTWFRGVHYFSKTIRSGELVAAHGRVTFFGRTPGMQHPDFDKLGGDDESGDGQRDDELYKTGAIIPIYPTTEAMKQAGLNSAALRRIVHRAFREHPLRITEYLSPEIIAANNLMPIGEAYRQLHFPDSAEQLERARYRMKWSELFFAQLFFALRRTEERRHLTSVRFERSGEKTASLHERLPFTMTSAQKQAVREIYHDLKSGRQMNRLLQGDVGSGKTLVAQFAMTLAVDNGLQAAFMAPTEILAFQHYAGLKNSLEPLGIRVALLTGRQKKKEREEKLARLERGEIDIAVGTHAIIEAGVQFRRLGLVIIDEQHRFGVLQRKALQEKAENPHVLLMTATPIPRTLTMGIYGDLDVSIIAEMPAGRKPIQTRLCCEAEKPELYRLLRKQIAEGRQAYIVYPLVEESEKIDLKAATESYEQLRREVFPELRLGLIHGQLPAAEKEAVMAEFRSGRLDILVGTTVIEVGVDVPNATIMVIEHAERFGISQLHQLRGRVGRGEHASSCFLVYTKLTGDAKDRLQAMAATGDGFRLSEIDLQIRGAGNMLGREQSGAASGLRIADLLTDGDIMRAARAAAFELIRRDETLTHPENALIRDYYMTHFRKRISLADVG | failed
MPPNTSFRLAALAVTVSGLLFSSSTLMAAETAETADLVLRNGNIYTVNQGQPWAEAVAVRDGRYVFIGSNAQAAEFIGPKTQVVDLNGSMAMPGINDVHAHPLDGGYEDIYSCNFSQKSSLDDILSQVSECAQKAGPGEWVIGSAWGSPRMAELSTTEALAKLDKVSNGRPVILRDDSYHNRWINSEAMRLAAITAQSVSPAGGVIVKDAKTGEPTGLLQEFPAFQHVQSLVPVRTEEQRLTSGRGATKTMVSLGITGVQEAVSSEVNLRIWSKIDRAEGLPLRIIGSIVSTPLLDEGAAGLELVARRDVYRTTNFFPDRFKFVLDGVPPAHTAKLIEPYLPTQAHGDHYHGDTHYTTEQVVEILSKLDKQGISTKLHAAGDGSLRLALDAVEQVRKINGPNGPMHQIAHTHLISPQDMPRFAQLRVAADLSPMLWFPSDMTNASVVTIGEERMKDFVPTVKLLRSGAVVAGGSDWPAGGPTPSPWIGIEGLVTRQNPLGDAPGTLAPEEAVDLPEAIRIYTINSAKAMGIEKETGSVELGKSADLIVLDRHLFNVPIKQVHRANVVKTYFKGQLVHSAPEKS | failed
MPPTQAESVIRSIIREIGQECAAHGEIVSETLIAFMVKAVVLDPSNGFNMDRTLMKSDVQNLVKLCMTRLLDTKNPSLDTIKMQVYFDMNYTNRVEFLEEHHRVLESRLGSVTREITDNRACAKEELESLYRKIISYVLLRSGLGSPTDIKTVREVTAALQSVFPQAELGTFLTLSKKDKERQLKELTMIVTGIRLFNRDCGKGGEGIDDLPAVLHVAIPATMQHIDYQLETARSQVYRYTAILEKAANDPLMRAELQPYMLKEALYNIRQYEVFLQIILSDIITGAQEVEMMTKQLGAHLEQLKMTIKSKIAVPTSQVFPIFIALSTLWTSLQDETIVVGVLSNLFTHIQPFLGAHELYFPERVMQCHLNGATVKTDVCRMKEHMEDRVNVADFRKLEWLFPETTANFDKLLIQYRGFCAYTFAATDGLLLPGNPAIGILKYKEKYYTFNSKDAAYSFAENPEHYIDIVREKAKKNTELIQLLELHQQFETFIPYSQMRDADKHYIKPITKCESSTQTNTHILPPTIVRSYEWNEWELRRKAIKLANLRQKVTHSVQTDLSHLRRENCSQVYPPKDTSTQSMREDSTGVPRPQIYLAGLRGGKSEITDEVKVNLTRDVDET | failed
MPQGCDRPSHGLRLADEQGRCQIKFVASDSPAEQAGLMIGDEIVALNGLRVSADNFSRRLATYQAGQVLELTIFHDDQLQSFSLTLAEPQPQSYNLRPAATVTSLEHHHHHH | failed
MPQGKWFRFGYGIVLVLLIIYLGSLVDWIFRPIVVFVQTLFAPVIIAGILYYLFRPIVGLLSKKMNRGLSILILFLMIIGAFTAFSLIVGPELQRQFQSLYNNLPTLINQVRDTFIALQSNELFNRFQESETFQPEEMISRFVNSLNDIIGTIGANITGFIGALANFFIILVLVPFILFYLLKEGEKLPVQLLKLFNKKQQHEGRLILADMDKMLSSYIQGQIIVSFCVGILCYIAYLIIGLDYALILALVAMFTNVIPFVGPWIGTFPAVIVAFIDSPLTALIVVIVVVVIQQIESNLISPQVMGKKLAIHPITIIFILLVAGRFAGVVGMLLAVPTYAVGKVIVTHSYRLWKLRKQPVE | failed
MPQSAPPNTRQAVLWNDVSGKAWVEMQPILDEILAPFERLVVDAGYPREGGNVLDIGCGAGATTLAMARRVGNDGNCVGLDISQPLVALATERTKLGEVANASFEVGDAQTYAFESGHFDAAISRFGVMFFDDPMAAFTNIRKAVRRRGKLAFVAWRSPLENDFMTTAVRAAAPFLPPAPAPDPDAPGQFAFADGAKVRRILEASGWASIEVEQADVPCRIAQRDLMAYATRLGPLGAALREVDRATAERITTVLPAAFAPFVDDGEARFNAACWLVTALA | failed
MPQVKLKEGEPVDVAIRRFKRSCEKAGVLADVRKREFYEKPTQERKRKKAAAVKRYQKKLARESVRTTRLY | failed
MPRKKKTVEDPALTRALKVMEAGALPDADLAAEFATLAESYGKLLRKFNKTLVISDAYEAQHQAMAKKLEEATWKYRQLKDVALPICMYCKKIRSDDDYWQRLETFFCNHADIMFSHGICPDCIKTAYEKMGMNRRAMPLPDAAVTGQPAASPERQPVEDDALREMRALVRRSAFDGSPVAPEVEQFVEKYGKLLRRFSKIVSISDSYQSQLRELNARLELMARTDLLTGLANHWEMVMRLAAEQSRSERNGKVFSIVLADIDHFKKVNDTHGHQAGDRVIRGIADTLRTNIRREDICSRWGGEEFLIILPEADLPRAGAVAAKLLAKVRNTVVPWDGRDIRVTVSIGYGTSEPGMSVDELIRRVDDALYSAKAAGRDRFAAAGSRADV | failed
